In patent US6191256A, “Recombinant factor VIII binding peptides” (Bayer Corporation, priority 1998, dated 2001):

Experiments:
rFVIII [1] = molecular target: T1, rFVIII (Homo sapiens, UniProt P00451); assay: confirmatory binding assay in filtration plate format using 14C-rFVIII; details: for 0.5M CaCl2 % total / 2% acetic acid % total / 2% acetic acid dpm / 0.5M CaCl2 dpm: 5 mg beads; for 0.5M CaCl2 dpm: 5° C.; for beads % total / beads dpm: remaining on beads after washes
Procedure: Confirmatory binding assays were performed in a filtration plate format using individual peptide sequences synthesized directly onto the TOYOPEARL AF amino 650 M resin, at a final substitution density of 0.1 mmole/g resin. A slurry of each individual peptide sequence was prepared using deionized water. A 100 μL volume of beads (corresponding to 5 mg) was loaded into each well of the filtration plate (MULTISCREEN Assay System, Millipore, Bedford, Mass.), in triplicate for each peptide sequence. Beads were washed with 20% ethanol and incubated overnight with equilibration buffer (20 mM imidazole, 10 mM
CaCl2, 0.105 M NaCl, pH 6.9). A 100 μL aliquot of ^14 C-rFVIII diluted in neat PPF to a final concentration of 20-30 nM was loaded into each well and incubated for 1 hour at 5° C. Filtrate (unbound ^14 C-rFVIII) was collected into a microtiter plate and transferred to liquid scintillation vials for dpm counting. Beads were washed sequentially with: 100 μL of equilibration buffer for 15 minutes, 200 μL of 0.5 M CaCl2 (in equilibration buffer), 200 μL of 1.0 M CaCl2 (in equilibration buffer), and 200 uL of 2% by volume glacial acetic acid in water, for 1 hour each at 5° C. Scintillation counting on the unbound ^14 C-rFVIII (plus equilibration buffer wash), salt and acid washes, as well as on the beads was then performed and the overall mass balance calculated.
Beads presenting the appropriate peptide sequence on the surface were placed in the filtration plate wells and incubated sequentially with equilibration buffer, ^14 C-rFVIII in PPF, equilibration buffer, 0.5 M CaCl2 wash, 1.0 M CaCl2 wash and 2% acetic acid wash. After each incubation, filtrate was collected in microtiter plates, and dpm counted on each
In Table 3, the ^14 C-rFVIII was loaded at 20 nM (in PPF) and the radiolabeling yield was at 3.0×10^15 dpm/mole. In Table 4, the ^14 C-rFVIII was loaded at 30 nM (in PPF) and the radiolabeling yield was at 5.0×10^15 dpm/mole.

rFVIII [2] = molecular target: T1, rFVIII; assay: column format binding assay, rFVIII mass per fraction by sandwich capture ELISA for the light chain; details: for Flow through ng: 10,000 ng rFVIII in 1:10 PPF injected, 5° C.; for ELISA results % total: Table 9, 0.5M CaCl2 fraction
Procedure: (§1) Immunoassay on rFVIII using a sandwich capture ELISA for the light chain and activity assay using a chromogenic substrate (COATEST Factor VIII kit from diaPharma, Franklin, Ohio) were performed on a BIOMEK® automated liquid handling system from Beckman Instruments (Brea, Calif.). The monoclonal antibody for rFVIII light chain (known as C7F7), the ELISA assay standard (lot A70K019), and the control for the activity assay (lot A70A001 @ 140 IU/mL) were from the Bayer Corporation (Berkeley, Calif.). The standard for the activity assay was at 11.2 IU/mL (Bayer, Clayton, N.C.), calibrated against the MEGA 1 standard, which is a working standard used by American manufacturers for measuring factor VIII activity (21).
(§2) Additional confirmatory binding assay and performance of the discovered binding peptides in terms of total rFVIII and activity recovery was performed in a column chromatographic format on a microbore HPLC. The resins were packed into 0.4×5 cm columns (Thomson, Springfield, Va.) and tested on the MICHROM HPLC system (Michrom BioResources, Auburn, Calif.). The elution program for the trials utilized the following method. The column was pre-equilibrated with equilibration buffer (as above). A 1 mL aliquot of 1:10 PPF followed by 1 mL of rFVIII (10,000 ng) in 1:10 PPF were injected and allowed sufficient time to flow through the column using equilibration buffer. The column was then washed with step elutions of 0.5 M and 1.0 M CaCl2 in equilibration buffer. The column was exposed to equilibration buffer. Remaining protein was eluted with 2% by volume glacial acetic acid in water. Columns were kept at 5° C. during the chromatographic runs. For each 1 mL injection (equilibration buffer, 1:10 PPF and 10,000 ng rFVIII in 1:10 PPF), the chromatographic cycle was run for 45 minutes (injection, flow through, 0.5 M CaCl2, 1.0 M CaCl2, equilibration buffer, 2% acetic acid, equilibration buffer).
(§3) A Gilson FC204 fraction collector at the HPLC outlet collected individual eluates for further analysis. Each collection tube had 100 μL hSA added to it to stabilize the rFVIII. Fractions collected from the 2% acetic acid eluates were neutralized with 2 M Tris, pH 10.5 to bring the pH to neutrality. The fractions were analyzed for total protein by the integration of the absorbance at 280 nm, for rFVIII by immunoassay (sandwich capture ELISA), and for rFVIII activity by a chromogenic substrate assay.
Tables 5 and 6 present the results from the additional confirmatory binding assays using the column format. The chromatography method was run by injecting the samples at a flow rate of 865 μL/min (413 cm/hr). In order to provide a 10 minute residence time of sample in the column the flow was decreased to 17 μL/min (10 cm/hr) upon injection.
Following the incubation, the flow was set at 865 μL/min (413 cm/hr) for the step clutions of 0.5 M CaCl2, 1.0 M CaCl2, and 2% acetic acid. Results are expressed in terms of the total mass of rFVIII in each fraction, as determined by the sandwich capture ELISA assay for the rFVIII light chain. […] A control using a non-binding peptide sequence (IGF) is also shown for comparison--in this case, 95% of the rFVIII loaded to the column was collected in the flow through fraction. Additional controls with no

rFVIII [3] = molecular target: T1, rFVIII; assay: rFVIII activity recovery from peptide columns by chromogenic substrate assay (COATEST); type: biochemical; details: for 0.5M CaCl2 % total: activity recovery; for Flow through IU: rFVIII activity in fraction; for Activity results % total: Table 9, 0.5M CaCl2 fraction
Procedure: as §1, §2, §3
Tables 7 and 8 list the sequences for which activity recovery was determined by a chromogenic substrate assay (COASTEST kit, diaPharma, Franklin, Ohio). Chromatographc conditions are the same as described above for the results from Tables 5 and 6. It can be

[4] = Table 3, 14C-rFVIII 20 nM in PPF
[5] = Table 3, 14C-rFVIII 20 nM in PPF, 3.0 × 10^15 DPM/mole
[6] = Table 4, 14C-rFVIII 30 nM in PPF

T1 sequence (P00451 20-2351): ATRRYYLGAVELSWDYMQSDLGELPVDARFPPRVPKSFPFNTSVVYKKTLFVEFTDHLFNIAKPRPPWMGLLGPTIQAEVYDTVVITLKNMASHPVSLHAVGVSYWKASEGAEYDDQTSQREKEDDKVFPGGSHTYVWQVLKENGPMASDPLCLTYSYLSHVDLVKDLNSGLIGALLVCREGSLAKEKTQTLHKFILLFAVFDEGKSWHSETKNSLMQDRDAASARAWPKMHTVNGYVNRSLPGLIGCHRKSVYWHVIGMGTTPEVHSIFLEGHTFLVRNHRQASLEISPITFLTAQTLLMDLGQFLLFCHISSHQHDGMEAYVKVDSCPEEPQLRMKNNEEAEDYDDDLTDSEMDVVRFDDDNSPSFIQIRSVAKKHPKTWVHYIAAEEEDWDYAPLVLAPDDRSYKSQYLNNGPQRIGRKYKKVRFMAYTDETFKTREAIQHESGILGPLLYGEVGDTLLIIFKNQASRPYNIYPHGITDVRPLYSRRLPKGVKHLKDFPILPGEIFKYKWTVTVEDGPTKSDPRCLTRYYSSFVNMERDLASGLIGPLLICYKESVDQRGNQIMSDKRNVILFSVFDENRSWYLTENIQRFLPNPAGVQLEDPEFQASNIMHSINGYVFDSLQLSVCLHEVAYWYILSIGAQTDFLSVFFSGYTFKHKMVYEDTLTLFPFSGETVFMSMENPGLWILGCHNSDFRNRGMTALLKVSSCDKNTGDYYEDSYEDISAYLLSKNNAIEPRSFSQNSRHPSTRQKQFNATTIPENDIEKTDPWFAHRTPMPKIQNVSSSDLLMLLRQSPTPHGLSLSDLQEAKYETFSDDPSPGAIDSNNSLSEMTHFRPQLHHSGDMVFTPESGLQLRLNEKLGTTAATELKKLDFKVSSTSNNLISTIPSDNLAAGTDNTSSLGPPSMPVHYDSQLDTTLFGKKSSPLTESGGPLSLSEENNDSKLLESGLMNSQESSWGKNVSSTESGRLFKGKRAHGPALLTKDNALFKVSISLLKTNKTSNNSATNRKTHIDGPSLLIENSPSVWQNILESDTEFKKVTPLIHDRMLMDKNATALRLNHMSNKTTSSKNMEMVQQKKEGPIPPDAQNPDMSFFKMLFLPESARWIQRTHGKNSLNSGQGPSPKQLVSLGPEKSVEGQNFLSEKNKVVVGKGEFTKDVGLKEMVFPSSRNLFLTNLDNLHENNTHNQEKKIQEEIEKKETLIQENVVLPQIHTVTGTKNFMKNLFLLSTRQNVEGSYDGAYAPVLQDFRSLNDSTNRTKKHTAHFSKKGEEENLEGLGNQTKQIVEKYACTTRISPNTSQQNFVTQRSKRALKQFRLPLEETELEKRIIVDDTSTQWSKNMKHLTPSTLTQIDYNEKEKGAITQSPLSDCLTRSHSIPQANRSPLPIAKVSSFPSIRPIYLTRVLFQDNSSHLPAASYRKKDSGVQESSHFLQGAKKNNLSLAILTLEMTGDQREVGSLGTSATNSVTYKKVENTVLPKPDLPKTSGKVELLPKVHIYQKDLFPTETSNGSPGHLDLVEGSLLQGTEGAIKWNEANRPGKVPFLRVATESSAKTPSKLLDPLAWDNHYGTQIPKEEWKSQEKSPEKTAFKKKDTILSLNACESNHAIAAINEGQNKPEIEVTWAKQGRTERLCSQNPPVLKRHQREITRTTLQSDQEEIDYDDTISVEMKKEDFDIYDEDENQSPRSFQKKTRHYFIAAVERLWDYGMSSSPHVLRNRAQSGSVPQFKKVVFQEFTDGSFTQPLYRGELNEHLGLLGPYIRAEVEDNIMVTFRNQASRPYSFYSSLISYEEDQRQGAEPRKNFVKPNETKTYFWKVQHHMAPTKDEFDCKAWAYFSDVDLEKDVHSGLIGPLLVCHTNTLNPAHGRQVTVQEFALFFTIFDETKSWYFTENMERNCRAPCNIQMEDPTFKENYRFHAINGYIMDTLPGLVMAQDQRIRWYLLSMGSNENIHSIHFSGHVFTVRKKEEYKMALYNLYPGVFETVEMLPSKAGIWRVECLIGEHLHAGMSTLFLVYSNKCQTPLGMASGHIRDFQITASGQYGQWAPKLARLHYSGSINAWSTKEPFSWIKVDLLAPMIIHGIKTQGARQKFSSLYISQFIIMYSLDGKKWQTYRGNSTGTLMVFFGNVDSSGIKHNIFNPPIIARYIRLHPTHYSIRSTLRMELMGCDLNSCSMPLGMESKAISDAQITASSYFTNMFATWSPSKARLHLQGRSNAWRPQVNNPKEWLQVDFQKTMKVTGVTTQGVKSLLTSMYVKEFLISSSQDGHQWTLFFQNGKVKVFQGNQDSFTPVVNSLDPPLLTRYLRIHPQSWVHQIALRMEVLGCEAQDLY
T1 sequence (P00451 1668-2351 limits assumed): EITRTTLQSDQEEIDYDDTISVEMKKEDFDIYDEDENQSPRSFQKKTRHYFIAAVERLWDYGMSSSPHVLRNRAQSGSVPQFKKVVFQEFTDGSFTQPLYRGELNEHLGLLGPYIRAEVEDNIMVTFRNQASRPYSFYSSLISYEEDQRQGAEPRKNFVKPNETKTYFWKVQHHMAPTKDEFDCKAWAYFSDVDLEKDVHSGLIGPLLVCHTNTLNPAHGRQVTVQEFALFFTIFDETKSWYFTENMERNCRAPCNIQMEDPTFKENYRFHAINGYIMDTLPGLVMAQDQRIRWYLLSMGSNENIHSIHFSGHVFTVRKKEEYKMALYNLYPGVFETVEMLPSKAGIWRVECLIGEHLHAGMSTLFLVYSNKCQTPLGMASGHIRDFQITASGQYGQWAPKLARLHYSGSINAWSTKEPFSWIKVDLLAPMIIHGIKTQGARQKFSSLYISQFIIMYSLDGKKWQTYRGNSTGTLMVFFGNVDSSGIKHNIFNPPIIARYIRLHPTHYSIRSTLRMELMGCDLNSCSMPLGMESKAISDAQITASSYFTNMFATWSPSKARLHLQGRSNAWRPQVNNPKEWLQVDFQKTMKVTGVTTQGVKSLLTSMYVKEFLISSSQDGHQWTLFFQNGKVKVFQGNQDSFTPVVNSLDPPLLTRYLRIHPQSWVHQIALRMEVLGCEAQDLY

6 (HYWFYK) [compound 6]
Total dpm (rFVIII [1]; Table 3, 14C-rFVIII 20 nM): 3881 dpm
0.5M CaCl2 % total (rFVIII [1]; [4]): 83%
2% acetic acid % total (rFVIII [1]; [4]): 12%
2% acetic acid dpm (rFVIII [1]; [4]): 458 dpm
0.5M CaCl2 dpm (rFVIII [1]; [5]): 3236 dpm
beads % total (rFVIII [1]; Table 3, 14C-rFVIII 20 nM): 5%
beads dpm (rFVIII [1]; Table 3, 14C-rFVIII 20 nM): 187 dpm
0.5M CaCl2 ng (rFVIII [2]; Table 5): 5658 ng
0.5M CaCl2 % total (rFVIII [2]; Table 5): 90%
2% acetic acid % total (rFVIII [2]; Table 5): 3%
2% acetic acid ng (rFVIII [2]; Table 5): 160 ng
Flow through % total (rFVIII [2]; Table 5): 2%
Total ng (rFVIII [2]; Table 5): 6320 ng
Flow through ng (rFVIII [2]; Table 5): 105 ng
ELISA results % total (rFVIII [2]): 90%
0.5M CaCl2 IU (rFVIII [3]; Table 7): 59.4 IU
2% acetic acid % total (rFVIII [3]; Table 7): 1%
2% acetic acid IU (rFVIII [3]; Table 7): 0.5 IU
Flow through % total (rFVIII [3]; Table 7): 0%
Total IU (rFVIII [3]; Table 7): 68.7 IU
0.5M CaCl2 % total (rFVIII [3]; Table 7): 86%
Flow through IU (rFVIII [3]; Table 7): 0.0 IU
Activity results % total (rFVIII [3]): 86%

7 (IRFYSE) [compound 7]
Total dpm (rFVIII [1]; Table 3, 14C-rFVIII 20 nM): 3764 dpm
0.5M CaCl2 % total (rFVIII [1]; [4]): 85%
2% acetic acid % total (rFVIII [1]; [4]): 11%
2% acetic acid dpm (rFVIII [1]; [4]): 415 dpm
0.5M CaCl2 dpm (rFVIII [1]; [5]): 3184 dpm
beads % total (rFVIII [1]; Table 3, 14C-rFVIII 20 nM): 4%
beads dpm (rFVIII [1]; Table 3, 14C-rFVIII 20 nM): 165 dpm
0.5M CaCl2 ng (rFVIII [2]; Table 5): 5836 ng
0.5M CaCl2 % total (rFVIII [2]; Table 5): 94%
2% acetic acid % total (rFVIII [2]; Table 5): 1%
2% acetic acid ng (rFVIII [2]; Table 5): 77 ng
Flow through % total (rFVIII [2]; Table 5): 4%
Total ng (rFVIII [2]; Table 5): 6225 ng
Flow through ng (rFVIII [2]; Table 5): 228 ng
ELISA results % total (rFVIII [2]): 94%
0.5M CaCl2 IU (rFVIII [3]; Table 7): 40.6 IU
2% acetic acid % total (rFVIII [3]; Table 7): 1%
2% acetic acid IU (rFVIII [3]; Table 7): 0.4 IU
Flow through % total (rFVIII [3]; Table 7): 0%
Total IU (rFVIII [3]; Table 7): 42.5 IU
0.5M CaCl2 % total (rFVIII [3]; Table 7): 96%
Flow through IU (rFVIII [3]; Table 7): 0.0 IU
Activity results % total (rFVIII [3]): 96%

9 (FALPGR) [compound 9]
Total dpm (rFVIII [1]; Table 4, 14C-rFVIII 30 nM): 3658 dpm
0.5M CaCl2 % total (rFVIII [1]; [6]): 93%
2% acetic acid % total (rFVIII [1]; [6]): 5%
2% acetic acid dpm (rFVIII [1]; [6]): 176 dpm
0.5M CaCl2 dpm (rFVIII [1]; Table 4, 14C-rFVIII 30 nM in PPF, 5.0 × 10^15 dpm/mole): 3414 dpm
beads % total (rFVIII [1]; Table 4, 14C-rFVIII 30 nM): 2%
beads dpm (rFVIII [1]; Table 4, 14C-rFVIII 30 nM): 68 dpm
0.5M CaCl2 ng (rFVIII [2]; Table 6): 7154 ng
0.5M CaCl2 % total (rFVIII [2]; Table 6): 97%
2% acetic acid % total (rFVIII [2]; Table 6): 2%
2% acetic acid ng (rFVIII [2]; Table 6): 181 ng
Flow through % total (rFVIII [2]; Table 6): 0%
Total ng (rFVIII [2]; Table 6): 7403 ng
Flow through ng (rFVIII [2]; Table 6): 0 ng
ELISA results % total (rFVIII [2]): 97%
0.5M CaCl2 IU (rFVIII [3]; Table 8): 68.9 IU
2% acetic acid % total (rFVIII [3]; Table 8): 0%
2% acetic acid IU (rFVIII [3]; Table 8): 0.1 IU
Flow through % total (rFVIII [3]; Table 8): 0%
Total IU (rFVIII [3]; Table 8): 70.2 IU
0.5M CaCl2 % total (rFVIII [3]; Table 8): 98%
Flow through IU (rFVIII [3]; Table 8): 0.0 IU
Activity results % total (rFVIII [3]): 98%
